Measurements published in patent publication US20260049138A1 (Chugai, published 2026).
Residue numbers refer to the chain shown, from its start. Numbers in names are those of the source.

B1: GLS3000 S27eD one-arm antibody (antibody, human IgG1, kappa, L234A L235A, N297A, name in Kabat numbering)
heavy: QVQLVESGGGVVQPGRSLRLSCAASGFTFSNAWMHWVRQAPGKGLEWVAQIKAKSNNYATYYAESVKGRFTISRDDSKNSLYLQMNSLKTEDTAVYYCRYVHYGAYYGVDAWGQGTTVTVSSASTKGPSVFPLAPSSKSTSGGTAALGCLVKDYFPEPVTVSWNSGALTSGVHTFPAVLQSSGLYSLSSVVTVPSSSLGTQTYICNVNHKPSNTKVDKKVEPKSCDKTHTCPPCPAPEAAGGPSVFLFPPKPKDTLMISRTPEVTCVVVDVSHEDPEVKFNWYVDGVEVHNAKTKPREEQYASTYRVVSVLTVLHQDWLNGKEYKCKVSNKALPAPIEKTISKAKGQPREPQVYTLPPSRCELTKNQVSLSCAVKGFYPSDIAVEWESNGQPENNYKTTPPVLDSDGSFFLVSKLTVDKSRWQQGNVFSCSVMHEALHNHYTQKSLSLSPDYKDDDDK
chain: EPKSSDKTHTCPPCPAPELLGGPSVFLFPPKPKDTLMISRTPEVTCVVVDVSHEDPEVKFNWYVDGVEVHNAKTKPREEQYNSTYRVVSVLTVLHQDWLNGKEYKCKVSNKALPAPIEKTISKAKGQPREPQVCTLPPSRDELTKNQVSLWCLVKGFYPSDIAVEWESNGQPENNYKTTPPVLDSDGSFFLYSKLTVDKSRWQQGNVFSCSVMHEALHNRYTQKSLSLSP
light: DIVMTQSPLSLPVTPGEPASISCRSSQSLVHDNRNTYLHWYQQKPGQAPRLLIYKVSNRFSGVPDRFSGSGSGTDFTLKISRVEAEDVGVYYCGQGTQVPYTFGQGTKLEIKRTVAAPSVFIFPPSDEQLKSGTASVVCLLNNFYPREAKVQWKVDNALQSGNSQESVTEQDSKDSTYSLSSTLTLSKADYEKHKVYACEVTHQGLSSPVTKSFNRGEC
B2: GLS3000 S27eN one-arm antibody (antibody, human IgG1, kappa, L234A L235A, N297A, name in Kabat numbering)
heavy: B1 heavy
chain: B1 chain
light: B1 light with D32N
B3: GLS3000 S52D one-arm antibody (antibody, human IgG1, kappa, L234A L235A, N297A, name in Kabat numbering)
heavy: B1 heavy
chain: B1 chain
light: B1 light with D32S, S57D
B4: GLS3000 S27eW one-arm antibody (antibody, human IgG1, kappa, L234A L235A, N297A, name in Kabat numbering)
heavy: B1 heavy
chain: B1 chain
light: B1 light with D32W
B5: GLS3000 S56M one-arm antibody (antibody, human IgG1, kappa, L234A L235A, N297A, name in Kabat numbering)
heavy: B1 heavy
chain: B1 chain
light: B1 light with D32S, S61M
B6: GLS3000 S27eR one-arm antibody (antibody, human IgG1, kappa, L234A L235A, N297A, name in Kabat numbering)
heavy: B1 heavy
chain: B1 chain
light: B1 light with D32R
B7: GLS3000 S27eF one-arm antibody (antibody, human IgG1, kappa, L234A L235A, N297A, name in Kabat numbering)
heavy: B1 heavy
chain: B1 chain
light: B1 light with D32F
B8: GLS3000 S27eV one-arm antibody (antibody, human IgG1, kappa, L234A L235A, N297A, name in Kabat numbering)
heavy: B1 heavy
chain: B1 chain
light: B1 light with D32V
B9: GLS3000 S27eM one-arm antibody (antibody, human IgG1, kappa, L234A L235A, N297A, name in Kabat numbering)
heavy: B1 heavy
chain: B1 chain
light: B1 light with D32M
B10: GLS3000 S56P one-arm antibody (antibody, human IgG1, kappa, L234A L235A, N297A, name in Kabat numbering)
heavy: B1 heavy
chain: B1 chain
light: B1 light with D32S, S61P
B11: GLS3000 S56I one-arm antibody (antibody, human IgG1, kappa, L234A L235A, N297A, name in Kabat numbering)
heavy: B1 heavy
chain: B1 chain
light: B1 light with D32S, S61I
B12: GLS3000 S52Y one-arm antibody (antibody, human IgG1, kappa, L234A L235A, N297A, name in Kabat numbering)
heavy: B1 heavy
chain: B1 chain
light: B1 light with D32S, S57Y
B13: GLS3000 S27eG one-arm antibody (antibody, human IgG1, kappa, L234A L235A, N297A, name in Kabat numbering)
heavy: B1 heavy
chain: B1 chain
light: B1 light with D32G
B14: GLS3000 S27eY one-arm antibody (antibody, human IgG1, kappa, L234A L235A, N297A, name in Kabat numbering)
heavy: B1 heavy
chain: B1 chain
light: B1 light with D32Y
B15: GLS3000 S56F one-arm antibody (antibody, human IgG1, kappa, L234A L235A, N297A, name in Kabat numbering)
heavy: B1 heavy
chain: B1 chain
light: B1 light with D32S, S61F
B16: GLS3000 S27eP one-arm antibody (antibody, human IgG1, kappa, L234A L235A, N297A, name in Kabat numbering)
heavy: B1 heavy
chain: B1 chain
light: B1 light with D32P
B17: GLS3000 S56N one-arm antibody (antibody, human IgG1, kappa, L234A L235A, N297A, name in Kabat numbering)
heavy: B1 heavy
chain: B1 chain
light: B1 light with D32S, S61N
B18: GLS3000 S56D one-arm antibody (antibody, human IgG1, kappa, L234A L235A, N297A, name in Kabat numbering)
heavy: B1 heavy
chain: B1 chain
light: B1 light with D32S, S61D
B19: GLS3000 S27eH one-arm antibody (antibody, human IgG1, kappa, L234A L235A, N297A, name in Kabat numbering)
heavy: B1 heavy
chain: B1 chain
light: B1 light with D32H
B20: GLS3000 S56A one-arm antibody (antibody, human IgG1, kappa, L234A L235A, N297A, name in Kabat numbering)
heavy: B1 heavy
chain: B1 chain
light: B1 light with D32S, S61A
B21: GLS3000 S27eI one-arm antibody (antibody, human IgG1, kappa, L234A L235A, N297A, name in Kabat numbering)
heavy: B1 heavy
chain: B1 chain
light: B1 light with D32I
B22: GLS3000 S56K one-arm antibody (antibody, human IgG1, kappa, L234A L235A, N297A, name in Kabat numbering)
heavy: B1 heavy
chain: B1 chain
light: B1 light with D32S, S61K
B23: GLS3000 S27eL one-arm antibody (antibody, human IgG1, kappa, L234A L235A, N297A, name in Kabat numbering)
heavy: B1 heavy
chain: B1 chain
light: B1 light with D32L
B24: GLS3000 S56E one-arm antibody (antibody, human IgG1, kappa, L234A L235A, N297A, name in Kabat numbering)
heavy: B1 heavy
chain: B1 chain
light: B1 light with D32S, S61E
B25: GLS3000 S27eK one-arm antibody (antibody, human IgG1, kappa, L234A L235A, N297A, name in Kabat numbering)
heavy: B1 heavy
chain: B1 chain
light: B1 light with D32K
B26: GLS3000 S52Q one-arm antibody (antibody, human IgG1, kappa, L234A L235A, N297A, name in Kabat numbering)
heavy: B1 heavy
chain: B1 chain
light: B1 light with D32S, S57Q
B27: GLS3000 S27eQ one-arm antibody (antibody, human IgG1, kappa, L234A L235A, N297A, name in Kabat numbering)
heavy: B1 heavy
chain: B1 chain
light: B1 light with D32Q
B28: GLS3000 S56H one-arm antibody (antibody, human IgG1, kappa, L234A L235A, N297A, name in Kabat numbering)
heavy: B1 heavy
chain: B1 chain
light: B1 light with D32S, S61H
B29: GLS3000 S27eE one-arm antibody (antibody, human IgG1, kappa, L234A L235A, N297A, name in Kabat numbering)
heavy: B1 heavy
chain: B1 chain
light: B1 light with D32E
B30: GLS3000 S52A one-arm antibody (antibody, human IgG1, kappa, L234A L235A, N297A, name in Kabat numbering)
heavy: B1 heavy
chain: B1 chain
light: B1 light with D32S, S57A
B31: GLS3000 S56L one-arm antibody (antibody, human IgG1, kappa, L234A L235A, N297A, name in Kabat numbering)
heavy: B1 heavy
chain: B1 chain
light: B1 light with D32S, S61L
B32: GLS3000 S52P one-arm antibody (antibody, human IgG1, kappa, L234A L235A, N297A, name in Kabat numbering)
heavy: B1 heavy
chain: B1 chain
light: B1 light with D32S, S57P
B33: GLS3000 S27eT one-arm antibody (antibody, human IgG1, kappa, L234A L235A, N297A, name in Kabat numbering)
heavy: B1 heavy
chain: B1 chain
light: B1 light with D32T
B34: GLS3000 S56G one-arm antibody (antibody, human IgG1, kappa, L234A L235A, N297A, name in Kabat numbering)
heavy: B1 heavy
chain: B1 chain
light: B1 light with D32S, S61G

molecular target: T1, CD3ε homodimer protein (human, UniProt P07766 23-126, limits assumed); assay: SPR Biacore T200, CD3ε homodimer on chip;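 note: Light-chain single-residue variant antibodies injected over amine-coupled CD3ε homodimer on a CM4 chip at 25 °C, bound amount divided by that of the GLS3000-containing antibody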
T1 construct: also called CD3 (CD3ε)
T1 sequence (P07766 23-126 limits assumed): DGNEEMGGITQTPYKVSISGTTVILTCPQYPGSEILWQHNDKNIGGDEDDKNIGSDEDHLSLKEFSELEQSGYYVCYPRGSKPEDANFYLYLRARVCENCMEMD

Compared with B1, B2 is higher in “ratio of amount bound vs unaltered GLS3000” value (“ratio of amount bound” below): 0.69 for the first, 1.16 for the second.

Going from B3 to B4, the “ratio of amount bound” value rises from 0.63 to 1.55.

First: B5
Second: B6
The “ratio of amount bound” value of the first is lower: 1.05 for the first, 1.58 for the second.

Compared with B7, B8 is lower in “ratio of amount bound” value: 1.32 for the first, 1.08 for the second.

Compared with B9, B10 is lower in “ratio of amount bound” value: 1.23 for the first, 0.95 for the second.

Going from B11 to B12, the “ratio of amount bound” value rises from 0.99 to 1.12.

Going from B13 to B14, the “ratio of amount bound” value rises from 1.04 to 1.2.

Compared with B15, B16 is lower in “ratio of amount bound” value: 1.32 for the first, 1.26 for the second.

Compared with B17, B18 is lower in “ratio of amount bound” value: 0.92 for the first, 0.77 for the second.

First: B19
Second: B20
The “ratio of amount bound” value of the first is higher: 1.23 for the first, 1.16 for the second.

First: B21
Second: B22
The “ratio of amount bound” value of the first is lower: 1.07 for the first, 1.46 for the second.

First: B23
Second: B24
The “ratio of amount bound” value of the first is higher: 1.17 for the first, 0.71 for the second.

Compared with B25, B26 is lower in “ratio of amount bound” value: 1.59 for the first, 1.05 for the second.

First: B27
Second: B28
The “ratio of amount bound” value of the first is higher: 1.1 for the first, 1.05 for the second.

First: B29
Second: B30
The “ratio of amount bound” value of the first is lower: 0.76 for the first, 0.93 for the second.

Going from B31 to B32, the “ratio of amount bound” value falls from 1.02 to 0.33.

Going from B33 to B34, the “ratio of amount bound” value falls from 0.97 to 0.92.
